54 sequences from the supplement of paper PMC11780869 can be followed below.

The series deals with Bacillus subtilis. In words: cleaved RNA product abundance (RNA/gDNA barcode ratio) relative to median wild-type variant (ratio to wild type); higher = more accumulation of the downstream cleavage product. The note with it: cleavage site: cggR-gapA (positions -7 to +36 mutated). In short, it runs like this: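 Reporter mRNAs (truncated aprE or tetM) carrying barcoded, mutagenized RNase Y cleavage-site windows were made from oligos with a 9% error rate and integrated into the B. subtilis chromosome. Cultures grew in LB at 37°C from OD600 0.0003 to 0.3. Cleaved RNA was gel-selected, reverse transcribed and barcode-sequenced alongside genomic DNA barcodes, with UMI collapsing. Cleaved product abundance is the RNA:gDNA barcode ratio per variant, scaled to the median wild-type variant.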

Where [1] appears, read: experiment (reporter, strain, medium): exp 2b: truncated aprE reporter, strain BJT200.
Setting [2] is: experiment (reporter, strain, medium): exp 4a: truncated aprE reporter, strain BJT201 with 2% xylose (RNase J1 expressed).
Where [3] appears, read: experiment (reporter, strain, medium): exp 6: tetM reporter, strain 168.

As to “ACAGACGAAGGAGCCGCAAAGGAGTTATTAAAGGATGAATAATCCCTCAATATAAATATCTCTCACTTATTTAAA”, the “cleaved RNA product abundance” value under setting [1] was found to be 0.161 and the “cleaved RNA product abundance” value under setting [2] worked out at 0.108.
For the sequence “ACAGACGAAGGAGCCGCAAAGGAGTTATTAAGAGATGAATAATCCCTCAATATAAATATCTCTCACTTATTTAAA”, the “cleaved RNA product abundance” value under setting [2] is 0.199.
On the same count and under the same terms, with “ACAGACGAAGGAGCCGCAAAGGAGTTATTAAGGAATGAATAATCCCTCAATATAAATATCTCTCACTTATTTAAA” the figure was 0.144.
Take “ACAGACGAAGGAGCCGCAAAGGAGTTATTAAGGGAAGAATAATCCCTCAATATAAATATCTCTCACTTATTTAAA”: under setting [1], the “cleaved RNA product abundance” value came out at 0.495.
For “ACAGACGAAGGAGCCGCAAAGGAGTTATTAAGGGATAAATAATCCCTCAATATAAATATCTCTCACTTATTTAAA”, the “cleaved RNA product abundance” value under setting [1] worked out at 0.828 and the “cleaved RNA product abundance” value under setting [2] came out at 0.789.
As for “ACAGACGAAGGAGCCGCAAAGGAGTTATTAAGGGATGAAAAATCCCTCAATATAAATATCTCTCACTTATTTAAA”, under setting [2], the “cleaved RNA product abundance” value is 0.576.
The same measure, in the same setting: with “ACAGACGAAGGAGCCGCAAAGGAGTTATTAAGGGATGAAGAATCCCTCAATATAAATATCTCTCACTTATTTAAA” the figure was 0.859.
As for “ACAGACGAAGGAGCCGCAAAGGAGTTATTAAGGGATGAATAATACCTCAATATAAATATCTCTCACTTATTTAAA”, the “cleaved RNA product abundance” value under setting [1] is 0.131 and the “cleaved RNA product abundance” value under setting [2] was 0.192.
For “ACAGACGAAGGAGCCGCAAAGGAGTTATTAAGGGATGAATAATCCCCCAATATAAATATCTCTCACTTATTTAAA”, the “cleaved RNA product abundance” value under setting [2] was determined as 0.247.
Take “ACAGACGAAGGAGCCGCAAAGGAGTTATTAAGGGATGAATAATCCCTCAATAAAAATATCTCTCACTTATTTAAA”: the “cleaved RNA product abundance” value under setting [1] worked out at 0.165.
Consider “ACAGACGAAGGAGCCGCAAAGGAGTTATTAAGGGATGAATAATCCCTCAATATAAATATCTCTCACTTATTTAAA”, for which the “cleaved RNA product abundance” value by setting is: under setting [1], 1.06; under setting [2], 0.982; under setting [3], 0.911.
For “ACAGACGAAGGAGCCGCAAAGGAGTTATTAAGGGATGAATAATCCCTCAATATCAATATCTCTCACTTATTTAAA”, under setting [2], the “cleaved RNA product abundance” value is 0.134.
The same measure, in the same setting: with “ACAGACGAAGGAGCCGCAAAGGAGTTATTAAGGGATGAATAATCCCTCACTATAAATATCTCTCACTTATTTAAA” the figure was 0.302; with “ACAGACGAAGGAGCCGCAAAGGAGTTATTAAGGGATGAATAATCCCTGAATATAAATATCTCTCACTTATTTAAA”, 0.361.
“ACAGACGAAGGAGCCGCAAAGGAGTTATTAAGGGATGAATAATTCCTCAATATAAATATCTCTCACTTATTTAAA”: under setting [1], the “cleaved RNA product abundance” value was determined as 0.328.
As to “ACAGACGAAGGAGCCGCAAAGGAGTTATTAAGGGATGACTAATCCCTCAATATAAATATCTCTCACTTATTTAAA”, the “cleaved RNA product abundance” value worked out at 0.423 under setting [1] and 0.596 under setting [2].
Turning to “ACAGACGAAGGAGCCGCAAAGGAGTTATTAAGTGATGAATAATCCCTCAATATAAATATCTCTCACTTATTTAAA”, under setting [2], the “cleaved RNA product abundance” value was found to be 0.162.
Turning to “ACAGACGAAGGAGCCGCAAAGGAGTTATTAATGGATGAATAATCCCTCAATATAAATATCTCTCACTTATTTAAA”, the “cleaved RNA product abundance” value under setting [2] came out at 0.114.
Still for that read-out and setting: with “ACAGACGAAGGAGCCGCAAAGGAGTTTTTAAGGGATGAATAATCCCTCAATATAAATATCTCTCACTTATTTAAA” the figure was 0.369; with “ACAGACGAAGGAGCCGCAAAGTAATTATTAAGGGATGAATAATCCCTCAATATAAATATCTCTCACTTATTTAAA”, 0.645.
“ACAGACGAAGGAGCCGCAAAGTACTTATTAAGGGATGAATAATCCCTCAATATAAATATCTCTCACTTATTTAAA”: the “cleaved RNA product abundance” value under setting [1] came out at 0.437 and the “cleaved RNA product abundance” value under setting [2] was 0.803.
Take “ACAGACGAAGGAGCCGCAAAGTAGTAATTAAGGGATGAATAATCCCTCAATATAAATATCTCTCACTTATTTAAA”: the “cleaved RNA product abundance” value under setting [2] came out at 0.191.
For “ACAGACGAAGGAGCCGCAAAGTAGTTAATAAGGGATGAATAATCCCTCAATATAAATATCTCTCACTTATTTAAA”, the “cleaved RNA product abundance” value by setting is: under setting [1], 0.292; under setting [2], 0.433.
In the case of “ACAGACGAAGGAGCCGCAAAGTAGTTAATAATGGATGAATAATCCCTCAATATAAATATCTCTCACTTATTTAAA”, the “cleaved RNA product abundance” value under setting [2] worked out at 0.0855.
Take “ACAGACGAAGGAGCCGCAAAGTAGTTATAAAGGGATGAATAATCCCTCAATATAAATATCTCTCACTTATTTAAA”: the “cleaved RNA product abundance” value under setting [2] is 0.301.
Consider “ACAGACGAAGGAGCCGCAAAGTAGTTATTAAAGGATGAATAATCCATCAATATAAATATCTCTCACTTATTTAAA”, for which the “cleaved RNA product abundance” value under setting [2] was found to be 0.153.
Still for that read-out and setting: under “ACAGACGAAGGAGCCGCAAAGTAGTTATTAAAGGATGAATAATCCCTCAATATAAATATCTCTCACTTATTTAAA” stands 0.208; under “ACAGACGAAGGAGCCGCAAAGTAGTTATTAACGGATGAATAATCCCTCAATATAAATATCTCTCACTTATTTAAA”, 0.164.
“ACAGACGAAGGAGCCGCAAAGTAGTTATTAAGAGATGAATAATCCCTCAATATAAATATCTCTCACTTATTTAAA”: the “cleaved RNA product abundance” value under setting [1] is 0.126 and the “cleaved RNA product abundance” value under setting [2] was found to be 0.124.
For “ACAGACGAAGGAGCCGCAAAGTAGTTATTAAGCGATGAATAATCCCTCAATATAAATATCTCTCACTTATTTAAA”, the “cleaved RNA product abundance” value is, setting by setting: under setting [1], 0.0839; under setting [2], 0.0692.
In the case of “ACAGACGAAGGAGCCGCAAAGTAGTTATTAAGGAATGAATAATCCCTCAATATAAATATCTCTCACTTATTTAAA”, the “cleaved RNA product abundance” value under setting [2] is 0.148.
As to “ACAGACGAAGGAGCCGCAAAGTAGTTATTAAGGCATGAATAATCCCTCAATATAAATATCTCTCACTTATTTAAA”, the “cleaved RNA product abundance” value reads like this: under setting [1], 0.101; under setting [2], 0.124.
Take “ACAGACGAAGGAGCCGCAAAGTAGTTATTAAGGGAGGAATAATCCCTCAATATAAATATCTCTCACTTATTTAAA”: the “cleaved RNA product abundance” value under setting [2] was 0.557.
With “ACAGACGAAGGAGCCGCAAAGTAGTTATTAAGGGATAAATAATCCCTCAATATAAATATCTCTCACTTATTTAAA”, the “cleaved RNA product abundance” value under setting [2] amounted to 0.9.
Still for that read-out and setting: with “ACAGACGAAGGAGCCGCAAAGTAGTTATTAAGGGATCAATAATCCCTCAATATAAATATCTCTCACTTATTTAAA” the figure was 1.25; with “ACAGACGAAGGAGCCGCAAAGTAGTTATTAAGGGATGAACAATCCCTCAATATAAATATCTCTCACTTATTTAAA”, 0.763; with “ACAGACGAAGGAGCCGCAAAGTAGTTATTAAGGGATGAATAACCCCTCAATATAAATATCTCTCACTTATTTAAA”, 0.762.
For the sequence “ACAGACGAAGGAGCCGCAAAGTAGTTATTAAGGGATGAATAAGCCCTCAATATAAATATCTCTCACTTATTTAAA”, the “cleaved RNA product abundance” value under setting [2] is 0.448.
As to “ACAGACGAAGGAGCCGCAAAGTAGTTATTAAGGGATGAATAATACCTCAATATAAATATCTCTCACTTATTTAAA”, the “cleaved RNA product abundance” value runs as follows: under setting [1], 0.155; under setting [2], 0.176.
On the same counts, the results for “ACAGACGAAGGAGCCGCAAAGTAGTTATTAAGGGATGAATAATCACTCAATATAAATATCTCTCACTTATTTAAA” are 0.11 and 0.183.
On the same counts, the results for “ACAGACGAAGGAGCCGCAAAGTAGTTATTAAGGGATGAATAATCCATCAATATAAATATCTCTCACTTATTTAAA” are 0.187 and 0.161.
In the case of “ACAGACGAAGGAGCCGCAAAGTAGTTATTAAGGGATGAATAATCCCACAATATAAATATCTCTCACTTATTTAAA”, the “cleaved RNA product abundance” value by setting is: under setting [1], 0.199; under setting [2], 0.223.
“ACAGACGAAGGAGCCGCAAAGTAGTTATTAAGGGATGAATAATCCCTAAATATAAATATCTCTCACTTATTTAAA”: the “cleaved RNA product abundance” value under setting [2] came out at 0.55.
“ACAGACGAAGGAGCCGCAAAGTAGTTATTAAGGGATGAATAATCCCTCAAAATAAATATCTCTCACTTATTTAAA”: the “cleaved RNA product abundance” value runs as follows: under setting [1], 0.289; under setting [2], 0.425; under setting [3], 0.282.
As for “ACAGACGAAGGAGCCGCAAAGTAGTTATTAAGGGATGAATAATCCCTCAATACAAATATCTCTCACTTATTTAAA”, the “cleaved RNA product abundance” value under setting [2] worked out at 0.0777.
As to “ACAGACGAAGGAGCCGCAAAGTAGTTATTAAGGGATGAATAATCCCTCAATATAAATATCTCTCACTTATTTAAA”, the “cleaved RNA product abundance” value reads like this: under setting [1], 0.953; under setting [2], 0.98; under setting [3], 1.09.
For “ACAGACGAAGGAGCCGCAAAGTAGTTATTAAGGGATGAATAATCCCTCAATATAATTATCTCTCACTTATTTAAA”, the “cleaved RNA product abundance” value under setting [2] was found to be 0.437.
Same read-out and setting: with “ACAGACGAAGGAGCCGCAAAGTAGTTATTAAGGGATGAATAATCCCTCAATATACATATCTCTCACTTATTTAAA” the figure was 0.664.
“ACAGACGAAGGAGCCGCAAAGTAGTTATTAAGGGATGAATAATCCCTCAATATATATATCTCTCACTTATTTAAA”: the “cleaved RNA product abundance” value under setting [2] worked out at 0.884.
The same measure, in the same setting: with “ACAGACGAAGGAGCCGCAAAGTAGTTATTAAGGGATGAATAATCCCTCAATCTAAATATCTCTCACTTATTTAAA” the figure was 0.0783; with “ACAGACGAAGGAGCCGCAAAGTAGTTATTAAGGGATGAATAATCCCTCAATGTAAATATCTCTCACTTATTTAAA”, 0.13.
Still for that read-out and setting: under “ACAGACGAAGGAGCCGCAAAGTAGTTATTAAGGGATGAATAATCCCTCAATTTAAATATCTCTCACTTATTTAAA” stands 0.221; under “ACAGACGAAGGAGCCGCAAAGTAGTTATTAAGGGATGAATAATCCCTCATTATAAATATCTCTCACTTATTTAAA”, 0.396.
On to “ACAGACGAAGGAGCCGCAAAGTAGTTATTAAGGGATGAATAATCCCTCCATATAAATATCTCTCACTTATTTAAA”, for which the “cleaved RNA product abundance” value runs as follows: under setting [1], 0.299; under setting [2], 0.487.
